# Results from patent publication US20230138315A1 (JIANGSU HENGRUI MEDICINE, published 2023).
# T1: rat ANGPTL3(17-455)-His (rat, biotin-labelled in the ELISA and HTRF assays (sites not given))
# T1 construct: also called full-length rat ANGPTL3
# T1 chain: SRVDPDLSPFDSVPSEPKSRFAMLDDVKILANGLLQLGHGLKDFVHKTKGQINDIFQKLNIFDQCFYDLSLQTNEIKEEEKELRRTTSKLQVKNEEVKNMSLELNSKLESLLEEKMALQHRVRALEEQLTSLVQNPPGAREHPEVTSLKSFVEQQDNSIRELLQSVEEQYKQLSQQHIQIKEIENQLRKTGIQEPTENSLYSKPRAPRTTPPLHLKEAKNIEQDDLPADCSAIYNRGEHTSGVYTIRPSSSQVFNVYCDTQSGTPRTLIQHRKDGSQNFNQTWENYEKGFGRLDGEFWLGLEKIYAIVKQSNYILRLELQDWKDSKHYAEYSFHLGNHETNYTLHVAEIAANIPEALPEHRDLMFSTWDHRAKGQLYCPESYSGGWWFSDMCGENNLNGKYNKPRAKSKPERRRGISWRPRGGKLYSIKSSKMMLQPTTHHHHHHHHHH
# T2: mouse ANGPTL3(17-455)-His (mouse, UniProt Q9R182 17-455, biotin-labelled in the ELISA and HTRF assays (sites not given))
# T2 construct: also called full-length mouse ANGPTL3
# T2 sequence: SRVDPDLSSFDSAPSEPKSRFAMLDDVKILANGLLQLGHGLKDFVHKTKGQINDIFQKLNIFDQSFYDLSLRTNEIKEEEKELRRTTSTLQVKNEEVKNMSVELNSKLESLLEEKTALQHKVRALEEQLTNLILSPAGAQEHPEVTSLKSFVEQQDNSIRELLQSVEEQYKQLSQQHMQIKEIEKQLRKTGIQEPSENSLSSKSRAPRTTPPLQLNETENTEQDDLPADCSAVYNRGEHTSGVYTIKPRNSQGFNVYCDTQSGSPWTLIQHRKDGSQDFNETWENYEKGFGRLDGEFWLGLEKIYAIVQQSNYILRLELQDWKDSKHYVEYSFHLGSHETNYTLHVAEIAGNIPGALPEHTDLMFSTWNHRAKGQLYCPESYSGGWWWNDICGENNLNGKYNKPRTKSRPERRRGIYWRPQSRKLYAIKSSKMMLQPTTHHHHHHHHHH
# T3: human ANGPTL3(17-170)-mFc (human)
# T3 construct: also called fusion protein of the extracellular region of human ANGPTL3 (17-170) and the mouse IgG2aFc fragment
# T3 chain: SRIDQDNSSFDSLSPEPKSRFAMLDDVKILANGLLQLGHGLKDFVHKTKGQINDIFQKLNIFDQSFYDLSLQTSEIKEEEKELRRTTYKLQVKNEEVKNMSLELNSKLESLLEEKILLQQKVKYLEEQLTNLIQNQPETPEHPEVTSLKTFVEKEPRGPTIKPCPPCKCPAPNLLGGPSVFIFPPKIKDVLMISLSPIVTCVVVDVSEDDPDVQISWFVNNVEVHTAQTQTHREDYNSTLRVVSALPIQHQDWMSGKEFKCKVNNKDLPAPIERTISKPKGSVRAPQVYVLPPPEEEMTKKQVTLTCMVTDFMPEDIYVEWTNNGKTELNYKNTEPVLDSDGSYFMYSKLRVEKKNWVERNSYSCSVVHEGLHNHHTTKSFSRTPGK
# Assays:
# rat ANGPTL3(17-455)-His = biological target: T1, rat ANGPTL3(17-455)-His; assay: ELISA; biotin-labelled antigen on streptavidin-coated plate
# Method: (§1) An anti-ANGPTL3 antibody inhibited or interfered with at least one activity of an ANGPTL3 protein by binding to the ANGPTL3 protein. The binding activity of the anti-ANGPTL3 antibody to the ANGPTL3 antigen was tested by an ELISA assay. The ANGPTL3 protein (human ANGPTL3(17-170)-mFc) was immobilized on a 96-well microplate by binding to the goat anti-mouse IgG coated on the microplate, and the binding activity of the antibody to the ANGPTL3 was determined according to the intensity of the signal after the antibody was added.
# (§2) Streptavidin (Sigma, S4762-5MG) was diluted to a concentration of 3 μg/mL with PBS buffer (Shanghai BasalMedia, B320, pH 7.4), added to a 96-well microplate (Corning, CLS3590-100EA) at 50 μL/well, and then incubated in an incubator at 37° C. for 3 h or incubated at 4° C. overnight (16-18 h). After the liquid was discarded, a PBS-diluted 5% skim milk (BD, 232100) blocking solution was added at 250 μL/well, and the mixture was incubated in an incubator at 37° C. for 3 h or incubated at 4° C. overnight (16-18 h) for blocking. […] The mixture was incubated in an incubator at 37° C. for 2 h. After the incubation was finished, the reaction solution in the microplate was discarded. The plate was washed 3 times with PBST, and then a test antibody that was diluted with a sample diluent to different concentrations was added at […]. The mixture was incubated in an incubator at 37° C. for 2 h.
# [1] = biological target: T2, mouse ANGPTL3(17-455)-His; assay: as above
# Method: as §1, §2
# [2] = biological target: T3, human ANGPTL3(17-170)-mFc; assay: ELISA; human ANGPTL3(17-170)-mFc captured by coated goat anti-mouse IgG
# Method: as §1, with “The” for “An anti-ANGPTL3 antibody inhibited or interfered with at least one activity of an ANGPTL3 protein by binding to the ANGPTL3 protein. The”
# Goat anti-mouse IgG (Sigma, M3534-1ML) was diluted to a concentration of 2 μg/mL with PBS buffer (Shanghai BasalMedia, B320, pH 7.4), added to a 96-well microplate (Corning, CLS3590-100EA) at 50 μL/well, and then incubated in an incubator at 37° C. for 3 h or incubated at 4° C. overnight (16-18 h). After the liquid was discarded, a PBS-diluted 5% skim milk (BD, 232100) blocking solution was added at 250 μL/well, and the mixture was incubated in an incubator at 37° C. for 3 h or incubated at 4° C. overnight (16-18 h) for blocking. After the blocking was finished, the blocking solution was discarded and the plate was washed 3 times with PBST buffer (pH 7.4 PBS containing 0.05% Tween-20), and then human ANGPTL3(17-170)-mFc (with sequence set forth in SEQ ID NO: 3) diluted to 0.5 μg/mL with a sample diluent (pH 7.4 PBS containing 1% BSA) was added at 50 μL/well. The mixture was incubated in an incubator at 37° C. for 2 h. After the incubation was finished, the reaction solution in the microplate was discarded. The plate was washed 3 times with PBST, and then a test antibody that was diluted with a sample diluent to different concentrations was added at 50 μL/well. The mixture was incubated in an incubator at 37° C. for 2 h. After the incubation was finished, the plate was washed 3 times with PBST, and a goat anti-human secondary antibody (Jackson Immuno Research, 109-035-003) that was diluted with the sample diluent was added at 50 μL/well. The mixture was incubated at 37° C. for 1 h.
Binder,EC50 (rat ANGPTL3(17-455)-His) [nM],EC50 [1] [nM],EC50 [2] [nM]
"P8G (antibody, human IgG4 S228P, kappa, V domains shown, also called anti-ANGPTL3 antibody P8G; P8 (variable regions)) VH: QVQLVQSGAEVKKPGASVKVSCKASGYTFTSYDINWVRQAPGQGLEWVGLINPRDDSTSYAQKFQGRVTMTRDTSTSTMYMELSSLRSEDTAVYFCARDLGSIREVLYYGMDVWGQGTTVTVSS VL: not shown",2.12,1.73,0.361
"P8BG (antibody, human IgG4 S228P, kappa, V domains shown, also called anti-ANGPTL3 antibody P8BG; P8B (variable regions)) VH: QVQLVQSGAEVKKPGASVKVSCKASGYTFTSYDINWVRQAPGQGLEWVGLINPREDSTSYAQKFQGRVTMTRDTSTSTMYMELSSLRSEDTAVYFCARDLGSIREVLYYGMDVWGQGTTVTVSS VL: not shown",0.528,0.105,0.172
"P3G (antibody, human IgG4 S228P, kappa, V domains shown, also called anti-ANGPTL3 antibody P3G; P3 (variable regions)) VH: QVQLVQSGAEVKKPGASVKVSCKSSGYTFTDYYLHWLRQAPGQGPEWMGWISPNSGGTSYAQKFQGRVTMTRDTSISTAYMELSSLRSDDTAVYYCARDIATLGNFFTYGMDVWGQGTTVTVSS VL: DIQLTQSPSSLSASVGDRVTITCRASQGIRNDLGWYQQKPGKAPKLLIYAASSLQSGVPSRFSGSGSGTDFTLTISSLQPEDFATYYCQQSYSSWTFGQGTKVEIKR",1.44,1.63,2.48
